Data from paper PMC9974672, “Luteolin protects DYT-PRKRA cells from apoptosis by suppressing PKR activation” (Frontiers in Pharmacology, 2023).
Where a chain is given by its changes, count along the chain named. Names and notes keep the numbering of the source.

B1: DD (S246D, S287D) phosphomimic mutant PACT fused to the VP16 activation domain (mammalian two-hybrid prey) (natural protein, UniProt O75569 1-313, looked up)
chain: MSQSRHRAEAPPLEREDSGTFSLGKMITAKPGKTPIQVLHEYGMKTKNIPVYECERSDVQIHVPTFTFRVTVGDITCTGEGTSKKLAKHRAAEAAINILKANASICFAVPDPLMPDPSKQPKNQLNPIGSLQELAIHHGWRLPEYTLSQEGGPAHKREYTTICRLESFMETGKGASKKQAKRNAAEKFLAKFSNISPENHISLTNVVGHSLGCTWHSLRNSPGEKINLLKRSLLSIPNTDYIQLLDEIAKEQGFNITYLDIDELSANGQYQCLAELSTSPITVCHGDGISCGNAQSDAAHNALQYLKIIAERK
notes: PACT ORF with serines 246 and 287 replaced by aspartic acids, in pVP16AASV19N; also called DD PACT; DD mutant; source: mammalian two-hybrid fusion, transfected cells (COS-1 by the methods, HeLa by the legends)
B2: P222L PACT fused to the VP16 activation domain (mammalian two-hybrid prey) (natural protein, UniProt O75569 1-313, looked up)
chain: B1 chain with P222L, D246S, D287S
notes: PACT ORF with the DYT-PRKRA patient mutation P222L, in pVP16AASV19N; Plasmid described in Vaughn et al., 2015; Burnett et al., 2020; also called P222L mutant; source: mammalian two-hybrid fusion, transfected cells (COS-1 by the methods, HeLa by the legends)

Molecular target: T1, PKR fused to the GAL4 DNA-binding domain (mammalian two-hybrid bait) (UniProt P19525 1-551)
T1 construct: also called GAL4-DBD PKR; source: mammalian two-hybrid fusion, transfected cells (COS-1 by the methods, HeLa by the legends)
T1 sequence (P19525 whole entry, the tested form may be a part): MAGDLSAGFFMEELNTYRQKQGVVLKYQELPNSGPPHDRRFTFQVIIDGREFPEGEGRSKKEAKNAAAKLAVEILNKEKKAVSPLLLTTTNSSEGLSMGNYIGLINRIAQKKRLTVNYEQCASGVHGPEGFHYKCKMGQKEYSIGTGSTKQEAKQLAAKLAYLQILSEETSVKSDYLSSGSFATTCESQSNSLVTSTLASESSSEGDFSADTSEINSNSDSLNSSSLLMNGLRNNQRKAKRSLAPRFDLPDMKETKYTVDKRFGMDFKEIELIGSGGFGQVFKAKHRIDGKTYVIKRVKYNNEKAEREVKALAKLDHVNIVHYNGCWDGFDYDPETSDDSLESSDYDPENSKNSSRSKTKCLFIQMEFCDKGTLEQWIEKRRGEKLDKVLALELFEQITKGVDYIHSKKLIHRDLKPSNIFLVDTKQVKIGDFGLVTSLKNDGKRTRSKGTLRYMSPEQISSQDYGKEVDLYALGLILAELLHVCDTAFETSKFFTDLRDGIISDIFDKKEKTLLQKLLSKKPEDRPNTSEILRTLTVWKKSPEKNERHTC
Experiment: two-hybrid; mammalian two-hybrid, PKR as GAL4-DBD fusion (bait), PACT proteins as VP16-AD fusions (preys), pG5Luc firefly luciferase reporter normalised to pRL-Null; cells untreated, no stress
Settings: partners not purified

fold interaction against wt PACT-PKR (two-hybrid luciferase)	Binder
> 2 fold	B1
~3 fold	B2
